Experimental findings from the supplement of paper PMC10126150 are described below.

± gives the standard deviation of the averaged measurements.

The subject of the data set is ATP. Description: switch fluorescence ratio, 500 uM ATP over buffer (Cy3 cluster intensity, sum of 5 cycles each) (fold (ratio)); higher = stronger signal-on switching upon ATP binding; sequences stand for … in TCGTCGGCAGCGTCAGATGTGTATAAGAGACAGTTTTTTTTTTTTTTTTTTTTTTTTT…TC. To be noted: aptamer strand: ATP DNA aptamer (quencher-CACCTGGGGGAGTATTGCGGAGGAAGG + anchor), 100 nM annealed; ATP concentration: 500 uM. In a few lines: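 Five buffer/ATP imaging cycles were run on Cy3-labelled switching-strand clusters on a modified Illumina MiSeq flow-cell, with NaOH stripping and re-annealing between cycles. In each cycle, clusters annealed to 100 nM quencher-labelled ATP aptamer were imaged in selection buffer, then after 15 min with 500 uM ATP at 22 °C. Per cluster, the fluorescence ratio is summed target-cycle over summed buffer-cycle Cy3 intensity, averaged per switch-domain sequence. Only clusters within 100-1000 RFU were kept.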
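Further: ATP exposure 15 min at 22 °C before imaging.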

In the case of AGGTTGAAGG, the switch fluorescence ratio turned out to be 0.997 ± 0.016.
Consider AAGAGCTAGT, for which the switch fluorescence ratio came out at 1 ± 0.013.
Then GGACCGCATT, with 2.5 ± 0.22.
Consider TAAAGGTGTA, for which the switch fluorescence ratio is 1 ± 0.026.
In the case of TTTTGTACGG it was 1.01 ± 0.018.
Take TTAGGGTTCC: the switch fluorescence ratio was 0.992 ± 0.035.
In the case of GCAGATTGGC it was 1.034 ± 0.01; in that of GGTTGGGGCA, 0.985 ± 0.049; in that of GGGAGGAAAG, 0.991 ± 0.017.
Turning to CACTCTCTGA, the switch fluorescence ratio is 0.969 ± 0.045.
Regarding ATAGGCGGTT, the switch fluorescence ratio was determined as 1.02 ± 0.012.
Then TAGGGTCATT, with 0.999 ± 0.029.
In the case of CGGGGCTGCT it was 1.01 ± 0.018; in that of ATAGCCGGAC, 1.081 ± 0.008; in that of TGTCGTGACA, 1.006 ± 0.0038.
For the sequence GTAAGTACTG, the switch fluorescence ratio was 1.36 ± 0.015.
In the case of CCGGGTTCGC it was 0.998 ± 0.083.
In the case of TTATATGAGG it was 0.962 ± 0.045.
Then GTAAGGGATT, with 1.025 ± 0.0068.
For the sequence CCGTTCAGAA, the switch fluorescence ratio came to 1.08 ± 0.019.
Then AGGGTGGTGT, with 0.976 ± 0.039; and AGGGGGAGAG, with 0.969 ± 0.013; and GGGGGGTCTA, with 1.02 ± 0.024.
In the case of GTTTGGGGTA it was 0.986 ± 0.013.
Take AGTTTTCAAG: the switch fluorescence ratio stood at 1 ± 0.026.
As to AAGTTGTCTG, the switch fluorescence ratio was 0.978 ± 0.056.
As for TCTGGTTAAA, the switch fluorescence ratio was found to be 0.982 ± 0.013.
Then TATAGTCTTT, with 0.983 ± 0.015; and GTCATATGTC, with 1.07 ± 0.051; and TCGAGTCGTG, with 0.9922 ± 0.0054.
Then TATACGGGAT, with 1.06 ± 0.043; and TTTTTTGTAT, with 1.02 ± 0.087.
ATATTTGGAT: the switch fluorescence ratio amounted to 1.03 ± 0.018.
In the case of GGTCTCTGGG, the switch fluorescence ratio amounted to 1 ± 0.016.
As to TTTGCCAGAC, the switch fluorescence ratio worked out at 1.23 ± 0.24.
As to CCGTATGGAG, the switch fluorescence ratio was determined as 0.9959 ± 0.002.
In the case of TAGGGCTGGC it was 1 ± 0.08.
In the case of ACCTAAAATA, the switch fluorescence ratio amounted to 1.07 ± 0.085.
In the case of CCTGGAAAGT it was 0.985 ± 0.0074; in that of TTAGTACGAT, 1.018 ± 0.0096; in that of GCAGGGGTTC, 1.16 ± 0.15.
On to GCATATTTGA, for which the switch fluorescence ratio is 0.981 ± 0.015.
As for TTTTTTGTT, the switch fluorescence ratio is 0.977 ± 0.034.
For TTGAGGGGA, the switch fluorescence ratio is 0.982 ± 0.021.
In the case of ATTTTTCTAG it was 1.01 ± 0.03.
As for CTTTCATTTT, the switch fluorescence ratio is 0.972 ± 0.036.
Take AATTTCGGAT: the switch fluorescence ratio was determined as 0.9595 ± 0.0035.
In the case of GGGTAATGGG, the switch fluorescence ratio came out at 0.982 ± 0.024.
For ATAAGGGAAC, the switch fluorescence ratio is 1.04 ± 0.017.
ATGTTAGGGT: the switch fluorescence ratio was found to be 0.988 ± 0.033.
As to TCGTTTTGCC, the switch fluorescence ratio amounted to 0.956 ± 0.02.
Consider TGACGGGGGG, for which the switch fluorescence ratio came out at 1.06 ± 0.12.
In the case of CACTCGGAAT it was 1.19 ± 0.03; in that of CTGTGTGCAC, 1 ± 0.066; in that of CCAATAAGGG, 0.994 ± 0.048.
Then CGGGGGTCCG, with 0.926 ± 0.087; and ATGCGTGGAA, with 1.02 ± 0.027.
In the case of AAGCGGGG it was 1.006 ± 0.002.
As to AATTAATCCA, the switch fluorescence ratio is 0.997 ± 0.017.
Take GAACGTGGAG: the switch fluorescence ratio worked out at 0.999 ± 0.02.
Take AAAGCGCGCT: the switch fluorescence ratio came to 1 ± 0.07.
Then GAAGGCATTC, with 1.06 ± 0.031; and TGTTCGGGTG, with 1.05 ± 0.022; and GAAGCGCCGG, with 1.01 ± 0.028.
In the case of TTTAGTATTT it was 1.01 ± 0.037; in that of TGCGGTAAGG, 1 ± 0.031; in that of AAAGTGGGGA, 1.03 ± 0.038.
In the case of GTGGTTGGGG it was 1.01 ± 0.028.
Consider GGTGCTATCT, for which the switch fluorescence ratio was 0.992 ± 0.015.
For the sequence CATCCGGCGG, the switch fluorescence ratio came to 1.17 ± 0.038.
In the case of AGGTTTTCAG it was 0.983 ± 0.045; in that of GGGGCCTCGG, 0.997 ± 0.019; in that of CGTGGGAATT, 0.977 ± 0.019.
In the case of GGGCCCTGGT it was 1.01 ± 0.013; in that of TTGTGCATTT, 1.01 ± 0.011.
In the case of AAACGGTTTC it was 0.993 ± 0.036; in that of GATTTGAGGG, 0.973 ± 0.032.
As for CGGTTACGAG, the switch fluorescence ratio was determined as 0.9952 ± 0.0029.
With TCTGCATGTT, the switch fluorescence ratio came out at 1.02 ± 0.012.
Consider TGATGATGAG, for which the switch fluorescence ratio was found to be 0.996 ± 0.013.
In the case of GTTTGGGTAG it was 1.02 ± 0.034.
Turning to AGATGAGTGT, the switch fluorescence ratio is 1 ± 0.02.
In the case of ATCTGGAATA it was 1.24 ± 0.039; in that of TCGGTCTAAC, 1 ± 0.015.
In the case of CGGCTAGTCT, the switch fluorescence ratio turned out to be 0.993 ± 0.13.
On to GGAACATATA, for which the switch fluorescence ratio was 1.01 ± 0.0064.
With GGTTTTCGGG, the switch fluorescence ratio is 0.969 ± 0.035.
Regarding TTGAGCTGTG, the switch fluorescence ratio was 1.02 ± 0.019.
Consider TTTTTCGGCT, for which the switch fluorescence ratio was determined as 0.985 ± 0.044.
As for CCAGTTGGGA, the switch fluorescence ratio was 1 ± 0.032.
As to CACTTATGTG, the switch fluorescence ratio turned out to be 0.99 ± 0.038.
Take ATAGAGTGGG: the switch fluorescence ratio is 0.966 ± 0.019.
TGGCACGACA: the switch fluorescence ratio came to 1.09 ± 0.042.
For the sequence CGCTTAACGT, the switch fluorescence ratio was 1.05 ± 0.096.
In the case of TTTGTGGGAC it was 1.11 ± 0.066.
Take AATTGGTGTT: the switch fluorescence ratio came to 0.985 ± 0.025.
Regarding GGTGTAGCGC, the switch fluorescence ratio was determined as 1.015 ± 0.0075.
For CGGGCCGGGG, the switch fluorescence ratio came out at 1.02 ± 0.033.
As to TCGTTATTTG, the switch fluorescence ratio was 1.004 ± 0.0078.
In the case of GGGGGTATGA it was 1.02 ± 0.022; in that of TGGGAAATCG, 1.03 ± 0.014.
Turning to TCGCGTTTCT, the switch fluorescence ratio amounted to 1.03 ± 0.088.
In the case of ACGGTTCCTG, the switch fluorescence ratio amounted to 1.001 ± 0.0061.
In the case of CTTTTTTGGT, the switch fluorescence ratio worked out at 1.03 ± 0.015.
Then ATGTGGTAAT, with 0.984 ± 0.024; and TATAAGAGCG, with 1.004 ± 0.0065.
As to GGATTAGTCA, the switch fluorescence ratio was 0.9973 ± 0.0047.
For the sequence GAAAGTGTGG, the switch fluorescence ratio is 0.971 ± 0.03.
Regarding GTGAACATAT, the switch fluorescence ratio was 1.036 ± 0.0022.
In the case of GTTAGAAAAT it was 1.01 ± 0.03.
As for GCTGCTAATA, the switch fluorescence ratio was determined as 1.039 ± 0.01.
Turning to GATAGTATTT, the switch fluorescence ratio stood at 1.005 ± 0.0066.
On to TACTGCTCTA, for which the switch fluorescence ratio stood at 1.022 ± 0.01.
As to TGGAGTCAGG, the switch fluorescence ratio turned out to be 1.05 ± 0.049.
On to AACGAATTAG, for which the switch fluorescence ratio was 1.04 ± 0.038.
In the case of AACTAGAGGG, the switch fluorescence ratio was 0.98 ± 0.017.
In the case of TTTGGGAGGT it was 0.99 ± 0.063.
In the case of CAAGTTGTAC it was 1.1 ± 0.019; in that of AAGTTGTTGT, 1.007 ± 0.0025; in that of CTATTCAGGG, 1.02 ± 0.066.
